B1: Hairpin Ribozyme (parent)
chain: GUCCUCUUUCACGUGCGCGUGAAAGAGAGAAGUGAACCAGAGAAACACACGUUGUGGUAUAUUACCUGGUA

Here are results for 167 variants from the RNAGym collection of RNA variant scans (doi:10.7554/elife.80360).

The series covers variants of B1. Kind of series: self-cleavage, relative activity (ratio to wild type); higher = more cleavage; co-transcriptional.
Take C18U A31G: the self-cleavage amounted to 0.721. The same measure for C18U A31U: 0.112. The same measure for G19U U55G: 0.313; for G19U U55A: 0.287. The figure for G19A C50U is 0.401; for G19A C50G it is 0.247.

As to G19A A31G, the self-cleavage came out at 0.7.

For the variant C18G G21A, the self-cleavage stood at 0.767.

For G19C A43C, the self-cleavage was determined as 0.11. The figure for U20A A61G is 0.11; for U20A A61U it is 0.238.

With U20C A43U, the self-cleavage was 0.125. Take G19U A47U: the self-cleavage was 0.211. The same measure for U20C C46G: 0.117. The same measure for C18G A28U: 0.5; for G19C A23G: 0.611. The same measure for U20A A47C: 0.293.

For the variant C18G A43U, the self-cleavage was 0.0776.

Consider C18G A43C, for which the self-cleavage was determined as 0.122. The figure for G19U C38G is 0.225; for G19C U62C it is 0.283. The figure for G19C U62A is 0.228; for G19C G27A it is 0.361; for G19C G27U it is 0.27. For G19C G27C, the self-cleavage was 0.133. With G19C A22U, the self-cleavage worked out at 0.487. Regarding G19C A59U, the self-cleavage came to 0.19. Take G19C A59C: the self-cleavage worked out at 0.225.

As for G19C A30U, the self-cleavage came out at 0.161. Regarding G19C A36C, the self-cleavage was determined as 0.374.

As for U20A A31U, the self-cleavage was 0.148. The same measure for G19A U58G: 0.583; for G19A U58A: 0.557. For the variant G19A G68C, the self-cleavage turned out to be 0.194. The figure for G19A G68A is 0.265; for C18U C46U it is 0.195; for C18U A71C it is 1.33. The same measure for C18U A71G: 1.09; for U20C A45G: 0.165.

Turning to U20A U62C, the self-cleavage is 0.446. On to U20A U62G, for which the self-cleavage turned out to be 0.195. The figure for U20C A30C is 0.217; for G19A C48A it is 0.136. The same measure for C18U G32U: 0.118; for C18U G32A: 0.124; for G19C G34A: 1.08.

For G19A U62C, the self-cleavage was 0.278.

Take G19C G32C: the self-cleavage was 0.0926. The same measure for G19A A44C: 0.0966; for U20A C37A: 0.218; for G19C G25U: 0.623. The same measure for G19C G25A: 0.512; for G19U U52A: 0.881. The same measure for G19U U52C: 0.818.

For the variant U20C A49C, the self-cleavage is 0.172.

As to C18G C38A, the self-cleavage amounted to 0.11. As for C18G C38G, the self-cleavage is 0.125.

As to U20A U60A, the self-cleavage was found to be 0.607.

With G19U A26C, the self-cleavage worked out at 0.238.

For the variant G19U A26G, the self-cleavage came to 0.849. The same measure for G19U G42C: 0.492; for G19A A45U: 0.1; for U20C A64U: 0.152. The figure for C18G G19C is 0.804; for U20C A28G it is 1.17. As for U20C A28U, the self-cleavage was 0.393. The same measure for U20C A28C: 0.374; for G19A A22C: 0.677.

C18G A31G: the self-cleavage was 0.549.

On to C18G A31U, for which the self-cleavage was determined as 0.165. Regarding G19C A39G, the self-cleavage was found to be 0.28. With G19U A44C, the self-cleavage was determined as 0.275. The figure for G19A A24C is 0.615. The figure for U20A G69U is 0.252.

As to U20A G69C, the self-cleavage is 0.268. The same measure for C18G U20A: 0.772; for C18U A41G: 1.04; for U20C A35G: 0.71.

Regarding U20C C50G, the self-cleavage was determined as 0.262. Turning to U20C C50U, the self-cleavage amounted to 0.476.

Regarding G19U G32U, the self-cleavage is 0.118. The figure for G19U G32C is 0.137; for G19A G40U it is 0.179; for G19A G40A it is 0.226. The figure for G19C A41C is 1.24; for G19C A41U it is 1.11. The same measure for G19A U33C: 0.0941. As to G19A U33G, the self-cleavage turned out to be 0.175.

Consider C18U A44C, for which the self-cleavage is 0.146. C18U A61C: the self-cleavage amounted to 0.17.

For C18U A61U, the self-cleavage turned out to be 0.22.

On to C18G A61C, for which the self-cleavage was determined as 0.201. The same measure for C18G A61G: 0.152; for G19C U53C: 0.679.

Regarding U20A U63C, the self-cleavage turned out to be 0.147. U20A A30G: the self-cleavage came to 0.184.

As for G19U A30C, the self-cleavage stood at 0.128. On to G19U G54C, for which the self-cleavage stood at 0.437.

With U20A A71G, the self-cleavage is 0.89.

For the variant C18G A41U, the self-cleavage was determined as 0.906.

For the variant C18G A41G, the self-cleavage was 0.555. The figure for C18U U53A is 1.

C18U U53G: the self-cleavage was 0.644. With U20C C66G, the self-cleavage stood at 0.152. The figure for G19C G21C is 0.493; for U20A G27U it is 0.203; for U20A A59U it is 0.144. The figure for U20C A36G is 1. The figure for G19A A71G is 0.857; for G19A A71U it is 0.648; for C18G A49U it is 0.196.

In the case of C18G A49C, the self-cleavage is 0.12.

As for C18G C37A, the self-cleavage came out at 0.235. The figure for C18G C37U is 0.493. With C18G C37G, the self-cleavage worked out at 0.259. The figure for C18U A59C is 0.237; for C18U A59U it is 0.176.

For C18U A47U, the self-cleavage was 0.178. The same measure for C18U A39U: 0.429.

In the case of C18U A39C, the self-cleavage worked out at 0.66.

For C18G G42C, the self-cleavage was 0.255. The figure for C18G U58C is 0.802; for C18G U70C it is 0.881; for G19U U63C it is 0.164.

As to U20A A24C, the self-cleavage was 0.81. The same measure for C18G G25A: 0.578. C18U U62G: the self-cleavage is 0.0807.

Consider G19C G69U, for which the self-cleavage came out at 0.212. The figure for C18U C50U is 0.326; for G19U U58G it is 0.672.

As to G19U U58C, the self-cleavage was found to be 0.994. The same measure for G19C A26U: 0.719; for C18U G19A: 1.08; for C18G U60C: 1.02. Turning to C18G U60A, the self-cleavage stood at 0.9. The figure for C18G U60G is 0.483. The figure for C18G G29A is 0.133; for G19C A71U it is 0.722. The figure for G19C A71G is 1.07; for C18G C65G it is 0.212; for G19C G29C it is 0.111. Turning to C18G A44U, the self-cleavage turned out to be 0.135. The same measure for C18G A44C: 0.164. The same measure for U20C C38A: 0.152.

For U20C G29C, the self-cleavage turned out to be 0.143. The same measure for C18U U67G: 0.303; for G19C G56U: 0.0712. The same measure for G19C U58A: 0.569. In the case of G19A A59U, the self-cleavage stood at 0.0875. The same measure for C18U G56U: 0.115; for C18U G56C: 0.179. The figure for C18U C37U is 0.713; for C18G A64U it is 0.18; for C18G A64C it is 0.158. In the case of C18G A64G, the self-cleavage was 0.463. The figure for G19A G29A is 0.173. G19A G29C: the self-cleavage is 0.184. For C18U G34C, the self-cleavage was determined as 1.44.

In the case of U20C G21A, the self-cleavage was found to be 0.686. The figure for U20C G21U is 0.652. The figure for U20A A64U is 0.135. The figure for U20A C65A is 0.857. U20A C65G: the self-cleavage was found to be 0.182.

As for U20A G54C, the self-cleavage worked out at 0.362. The figure for U20A G54U is 0.547; for U20A A23U it is 0.785. On to U20A A23G, for which the self-cleavage stood at 0.783.
